Results as given in patent US20240360242A1 (KISOJI BIOTECHNOLOGY, published 2024).
Positions count from the first letter of the chain named.

B1: KD002 (antibody, human IgG1, V domains shown)
VH: QVQLQESGGGMVQVGGSLRLSCAASGFPFSSADMSWVRQAPGKGPEWVSYINADGSKTYYPDSVKGRFTISRDNAKNTLYLLMNNLKPEDTALYRCARAKLTDTHYVEDYWGQGTQVTVSS
notes: also called anti-TROP2 sdAb KD002
B2: KD003 (antibody, human IgG1, V domains shown)
VH: B1 VH with V14P, P28T, S31N, A32Y, D54G, K57N, Y59D, T78M
notes: also called anti-TROP2 sdAb KD003
B3: KD001 (antibody, human IgG1, V domains shown)
VH: QVQLQESGGGMVHPGGSLRLSCAASGFTFSGSDMSWVRQAPGKGPEWVSYITSGGTTYYPDSVKGRFTISRDNAKNTLYLQMNSLTPDDTALYRCAKARLTDSHYVEDAWGQGTQVTVSS
notes: also called anti-TROP2 sdAb KD001
B4: KD004 (antibody, human IgG1, V domains shown)
VH: B3 VH with M11L, H13Q, G16R, S53G, G54S, I69T, T77M, T86K
notes: also called anti-TROP2 sdAb KD004
B5: KD005 (antibody, human IgG1, V domains shown)
VH: B3 VH with M11L, H13E, P14A, T86K, A98S
notes: also called anti-TROP2 sdAb KD005
B6: KD007 (antibody, human IgG1, V domains shown)
VH: QVQLQESGGGLVQPGGSLRLSCAASGFAFSFYAMAWYRQAPGKQRDMVATITAYGNTNYADSVKGRFTTSRDNAKNTVYLQMNSLKPEDTAVYVCNANLPSASHNYWGQGTQVTVSS
notes: also called anti-TROP2 sdAb KD007

biological target: T1, HEK-TROP2 Δ27-104 (human, UniProt P09758); assay: flow cytometry, 100 nM antibody, transiently transfected HEK cells, APC anti-human Fc
T1 sequence (membrane protein on transfected HEK cells, looked up): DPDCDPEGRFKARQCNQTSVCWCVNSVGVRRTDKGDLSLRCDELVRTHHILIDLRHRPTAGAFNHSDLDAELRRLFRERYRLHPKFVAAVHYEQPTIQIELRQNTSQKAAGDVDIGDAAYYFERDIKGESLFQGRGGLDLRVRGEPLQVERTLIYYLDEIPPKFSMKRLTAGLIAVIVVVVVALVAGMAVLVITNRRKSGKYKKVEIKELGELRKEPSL
Description: (§1) To determine the effect of TROP2 truncations on the binding ability of anti-TROP2 sdAbs, the HEK parental cells were transiently transfected with human TROP2 mutants by lipofectamine. 24 hours after transfection, cells were collected and stained with anti-TROP2 antibodies (FIG. 13A and FIG. 13B). In brief, 1×10⁵ cells were incubated with an Fc receptor blocking antibody (1/100 dilution) for 10 minutes at room temperature. Anti-TROP2 antibodies were diluted in FACS staining buffer to 100 nM and added and incubated with cells for 30 minutes on ice. After washing three times with FACS staining buffer, APC-conjugated secondary antibodies recognizing the human Fc region (Biolegend, Cat #410712) were mixed with cells. After staining for 30 minutes, cells were washed three times, followed by resuspension into 100 μL of 7-Amino-Actinomycin D (7-AAD) solution (BD Biosciences, Cat #559925).

Q: Does B1 bind?
A: Result: no binding (tested: 100 nM)

Q: Does B2 bind?
A: Result: no binding (tested: 100 nM)

Q: Does B3 bind?
A: Result: no binding (tested: 100 nM)

Q: Does B4 bind?
A: Result: no binding (tested: 100 nM)

Q: Does B5 bind?
A: Result: no binding (tested: 100 nM)

Q: Does B6 bind?
A: Result: no binding (tested: 100 nM)

biological target: T2, HEK-TROP2 Δ27-114 (human, UniProt P09758); assay: as above
T2 construct: deletion of residues 27-114, transiently expressed on HEK cells
T2 sequence (membrane protein on transfected HEK cells, looked up): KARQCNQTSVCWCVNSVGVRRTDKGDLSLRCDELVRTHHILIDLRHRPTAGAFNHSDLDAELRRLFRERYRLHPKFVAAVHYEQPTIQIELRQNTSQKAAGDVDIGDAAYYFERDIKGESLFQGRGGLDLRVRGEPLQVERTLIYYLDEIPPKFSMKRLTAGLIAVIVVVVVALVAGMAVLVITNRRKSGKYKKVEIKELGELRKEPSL
Description: as §1

Q: Does B1 bind?
A: Result: no binding (tested: 100 nM)

Q: Does B2 bind?
A: Result: no binding (tested: 100 nM)

Q: Does B3 bind?
A: Result: no binding (tested: 100 nM)

Q: Does B4 bind?
A: Result: no binding (tested: 100 nM)

Q: Does B5 bind?
A: Result: no binding (tested: 100 nM)

Q: Does B6 bind?
A: Result: no binding (tested: 100 nM)

biological target: T3, HEK-TROP2 Δ27-126 (human, UniProt P09758); assay: as above
T3 construct: deletion of residues 27-126, transiently expressed on HEK cells
T3 sequence (membrane protein on transfected HEK cells, looked up): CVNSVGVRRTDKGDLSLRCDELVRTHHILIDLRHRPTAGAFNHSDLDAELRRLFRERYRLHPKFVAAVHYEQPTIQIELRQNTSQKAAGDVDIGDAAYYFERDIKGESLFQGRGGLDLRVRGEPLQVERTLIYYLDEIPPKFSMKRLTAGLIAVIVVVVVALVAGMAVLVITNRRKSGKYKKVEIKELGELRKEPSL
Description: as §1

Q: Does B1 bind?
A: Result: no binding (tested: 100 nM)

Q: Does B2 bind?
A: Result: no binding (tested: 100 nM)

Q: Does B3 bind?
A: Result: no binding (tested: 100 nM)

Q: Does B4 bind?
A: Result: no binding (tested: 100 nM)

Q: Does B5 bind?
A: Result: no binding (tested: 100 nM)

Q: Does B6 bind?
A: Result: no binding (tested: 100 nM)

Biological target: T4, HEK-TROP2 Δ27-36
T4 construct: also called TROP2 delta 27-36
T4 membrane protein on transfected HEK cells: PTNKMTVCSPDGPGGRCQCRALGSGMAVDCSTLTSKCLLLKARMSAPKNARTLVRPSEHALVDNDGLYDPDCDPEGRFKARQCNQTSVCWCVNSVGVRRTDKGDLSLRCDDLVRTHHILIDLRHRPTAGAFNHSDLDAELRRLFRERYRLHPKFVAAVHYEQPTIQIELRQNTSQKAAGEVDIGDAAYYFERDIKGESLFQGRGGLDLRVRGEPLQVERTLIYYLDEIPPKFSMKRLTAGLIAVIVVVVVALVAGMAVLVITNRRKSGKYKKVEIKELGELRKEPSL
Assay: as above
Description: as §1

Q: Does B1 bind?
A: Result: binds

Q: Does B2 bind?
A: Result: binds

Q: Does B3 bind?
A: Result: binds

Q: Does B4 bind?
A: Result: binds

Q: Does B5 bind?
A: Result: binds

Q: Does B6 bind?
A: Result: no binding (tested: 100 nM)

Biological target: T5, HEK-TROP2 Δ27-44
T5 construct: also called TROP2 delta 27-44
T5 membrane protein on transfected HEK cells: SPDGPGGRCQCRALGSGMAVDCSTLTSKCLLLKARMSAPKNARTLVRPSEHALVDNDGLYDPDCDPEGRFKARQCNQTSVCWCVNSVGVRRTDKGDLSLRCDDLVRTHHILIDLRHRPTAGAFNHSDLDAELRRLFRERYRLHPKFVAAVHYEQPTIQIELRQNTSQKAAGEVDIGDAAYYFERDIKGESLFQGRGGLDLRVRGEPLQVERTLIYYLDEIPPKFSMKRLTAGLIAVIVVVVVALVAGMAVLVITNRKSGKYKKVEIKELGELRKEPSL
Assay: as above
Description: as §1

Q: Does B1 bind?
A: Result: binds

Q: Does B2 bind?
A: Result: binds

Q: Does B3 bind?
A: Result: binds

Q: Does B4 bind?
A: Result: binds

Q: Does B5 bind?
A: Result: binds

Q: Does B6 bind?
A: Result: no binding (tested: 100 nM)

biological target: T6, HEK-TROP2 Δ27-96 (human, UniProt P09758); assay: as above
T6 construct: deletion of residues 27-96, transiently expressed on HEK cells
T6 sequence (membrane protein on transfected HEK cells, looked up): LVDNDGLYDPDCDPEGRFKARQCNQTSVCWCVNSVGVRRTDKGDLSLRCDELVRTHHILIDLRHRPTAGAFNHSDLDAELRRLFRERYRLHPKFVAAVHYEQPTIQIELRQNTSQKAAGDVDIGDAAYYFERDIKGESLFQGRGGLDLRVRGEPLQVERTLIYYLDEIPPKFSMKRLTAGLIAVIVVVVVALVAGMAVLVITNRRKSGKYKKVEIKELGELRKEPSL
Description: as §1

Q: Does B1 bind?
A: Result: no binding (tested: 100 nM)

Q: Does B2 bind?
A: Result: no binding (tested: 100 nM)

Q: Does B3 bind?
A: Result: no binding (tested: 100 nM)

Q: Does B4 bind?
A: Result: no binding (tested: 100 nM)

Q: Does B5 bind?
A: Result: no binding (tested: 100 nM)

Q: Does B6 bind?
A: Result: no binding (tested: 100 nM)

Biological target: T7, TROP2 delta 27-56 on HEK cells (human, UniProt P09758 1-323)
T7 construct: Human TROP2 with residues 27-56 deleted, transiently transfected into HEK cells; also called TROP2 with 27-56 regions truncated
T7 chain: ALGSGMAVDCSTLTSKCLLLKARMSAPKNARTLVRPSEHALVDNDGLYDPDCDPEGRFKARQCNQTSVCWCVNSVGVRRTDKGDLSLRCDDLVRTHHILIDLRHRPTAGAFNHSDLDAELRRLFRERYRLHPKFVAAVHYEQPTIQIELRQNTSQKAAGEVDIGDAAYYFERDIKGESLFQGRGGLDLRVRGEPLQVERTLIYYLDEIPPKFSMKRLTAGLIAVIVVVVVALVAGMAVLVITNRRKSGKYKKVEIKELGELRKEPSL
Assay: as above
Description: as §1

Q: Does B1 bind?
A: Result: no binding (tested: 100 nM)

Q: Does B2 bind?
A: Result: no binding (tested: 100 nM)

Q: Does B3 bind?
A: Result: no binding (tested: 100 nM)

Q: Does B4 bind?
A: Result: no binding (tested: 100 nM)

Q: Does B5 bind?
A: Result: no binding (tested: 100 nM)

Q: Does B6 bind?
A: Result: no binding (tested: 100 nM)
